B1: anti-PACAP antibody Ab23 (antibody, human IgG1, kappa, N297A, V domains shown)
VH: QSVEESGGRLVTPGTPLTLTCTVSGFSLNNYAMSWVRQAPGKGLEWIGIMGVNDITYYASWAKGRFTISKTSTTVDLKMTSLTTEDTATYFCTREIRDDGDSSDKLWGPGTLVTVSS
VL: AIKMTQTPSSVSAAVGGTVTINCQASEDIYTNLAWYQQKPGQPPNLLIYDASDLASGVPSRFSGSGDGTQFTLTISAVQCEDAATYYCQGVAWSSNTGYGSAFGGGTEVVVKR
notes: full-length rabbit/human chimeric antibody; PACAP38 specific
B2: anti-PACAP antibody Ab12.H (antibody, human IgG1, kappa, N297A, V domains shown)
VH: EVQLVESGGGLVQPGGSLRLSCAASGFSLSSYAMGWVRQAPGKGLEWIGDISTYGTTDYASWVYGRFTISRDNSKNTVYLQMNSLRAEDTAVYFCARDYWLSLWGQGTLVTVSS
VL: AAQLTQSPSTLSASVGDRVTITCQSSQSVYDNNALAWYQQKPGKAPKLLIYAASTLASGVPSRFSGSGSGTEFTLTISSLQPDDFATYYCLGGYYDPADNAFGGGTKVEIKR
notes: humanized form of Ab12, full length
B3: anti-PACAP antibody Ab1.H (antibody, human IgG1, kappa, N297A, V domains shown)
VH: EVQLVESGGGLVQPGGSLRLSCAASGFTVSSAVMNWVRQAPGKGLEWIGSIVASGTTYYASSANGRFTISRDNSKNTLYLQMNSLRAEDTAVYYCARGGGEFFIWGQGTLVTVSS
VL: DIQMTQSPSTLSASVGDRVTITCQSSESVYSNYLSWYQQKPGKAPKFLIYQASNLASGVPSRFSGSGSGTEFTLTISSLQPDDFATYYCAGGYSENIVGFGGGTKVEIKR
notes: humanized form of Ab1, full length
B4: anti-PACAP antibody Ab9.H (antibody, human IgG1, kappa, N297A, V domains shown)
VH: EVQLVESGGGLVQPGGSLRLSCAASGFTVSRDYWICWVRQAPGKGLEWIGCISAGGGSTDYANWVNGRFTISRDISKNTGYLQMNSLRAEDTAVYYCAGNLEIWGQGTLVTVSS
VL: DIQMTQSPSTLSASVGDRVTITCQSSPSIYSGAFLSWYQQKPGKAPKFLIYEASKLASGVPSRFSGSGSGTEFTLTISSLQPDDFATYYCLGFYDCSSVDCHAFGGGTKVEIKR
notes: humanized form of Ab9, full length
B5: anti-PACAP antibody Ab22 (antibody, human IgG1, kappa, N297A, V domains shown)
VH: QEQLVESGGGLVQPEGSLTLTCTASGFDFSSNAMCWVRQAPGKGLEWIGSIYNADGKNYYAIWAKGRFTISRTSSTTVTLQMTSLTAADTATYFCARDFDLWGQGTLVTVSS
VL: AAVLTQTPSPVSAAVGGTVTINCQSSQSVYDNDWLAWFQQKPGQPPKLLIYLTSTLASGVPSRFSGSGSGTQFTLTISGVQCDDAATYYCLGGYDEDGDTHVFGGGTEVVVKR
notes: as for B1
B6: anti-PACAP antibody Ab5.H (antibody, human IgG1, kappa, N297A, V domains shown)
VH: EVQLVESGGGLVQPGGSLRLSCAASGFSLSSYAMIWVRQAPGKGLEWVGIIYDNGDTYYASSAKGRFTISRDNSKNTVYLQMNSLRAEDTAVYFCAREPGSTTQNDLWGQGTLVTVSS
VL: DVQMTQSPSTLSASVGDRVTITCQASENIYNSLLWYQQKPGKAPKLLIYRASTLASGVPSRFSGSGSGTEFTLTISSLQPDDFATYYCQNYYNIWTNGAAFGGGTKVEIKR
notes: humanized form of Ab5, full length

Legend:
human PACAP38 [1] = biological target: T1, human PACAP38 (human, not fully specified; C-terminal lysine is amidated; N-terminal or C-terminal biotin in the HTRF and PC-12 cell binding assays); test: SPR, Ab immobilised
T1 construct: synthetic peptide, bought; also called huPACAP (1-38)
T1 peptide: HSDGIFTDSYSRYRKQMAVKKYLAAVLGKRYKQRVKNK
In short: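 SPR with antibody amine-coupled to the chip and human PACAP38 flowed as analyte at 1.23–100 nM in PBST containing 0.25 M arginine, 0.2 mg/ml BSA and 0.005% azide, pH 7. Association lasted 2–4 min and dissociation 3–120 min. Kinetics were fitted to a 1:1 Langmuir model.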

human PACAP27 [2] = biological target: T2, human PACAP27 (human, C-terminal leucine is amidated; 125I-labelled in Example 10); test: SPR, Ab immobilised
T2 peptide: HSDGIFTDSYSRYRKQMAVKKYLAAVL

human VIP = biological target: T3, human VIP (human); test: SPR, Ab immobilised
T3 construct: also called Vasoactive Intestinal Peptide
T3 peptide: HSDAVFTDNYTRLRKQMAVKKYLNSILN

human PACAP38 [3] = biological target: T1, human PACAP38; test: cell-based or functional assay
human PACAP38 [4] = biological target: T1, human PACAP38; test: cell-based or functional assay
human PACAP38 [5] = biological target: T1, human PACAP38; test: cell-based or functional assay
human PACAP38 [6] = biological target: T1, human PACAP38; test: HTRF binding, biotin-PACAP38
In short: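 Antibody dilution series (top 100 nM final) incubated with N- or C-terminal biotinylated PACAP38 (35 nM final), alone or with 350 nM PACAP27 or VIP. HTRF with Eu³⁺ anti-human Fc donor and d2-streptavidin acceptor, 1 h at room temperature, read at 620/665 nm; EC₅₀ from binding curves.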

human PACAP38 [7] = biological target: T1, human PACAP38; test: inhibition of 30 nM biotin-PACAP38 binding to PC-12 cells, TRF
Protocol: To identify antibodies that block PACAP38 binding to PAC1-R-expressing cells, adherent PC-12 cells (ATCC, Manassas, Va.) expressing PAC1-R were used in a Europium-based PAC1-R expressing cells binding assay.
Antibody solutions were incubated with N-terminal biotinylated PACAP38 at 10× the final concentration (100 nM or 30 nM) for 1 hr, then added to PC-12 cells that were plated 24 hrs. prior in black clear bottom 96 well plates (COSTAR™, Corning Incorporated, Corning, N.Y.) and further incubated for 1 hr at room temperature. After three washes, the cells were incubated with 20 μl Europium-labeled streptavidin (PerkinElmer, Waltham, Mass.) for 1 hr at room temperature. Cells were washed three times, then 20 μl DELFIA® Enhancement solution (PerkinElmer, Waltham, Mass.) was added to each well and incubated for 15 minutes with gentle shaking. Plates were read (Time Resolved Fluorescence (“TRF”)) on SPECTRAMAX® (Molecular Devices, Sunnyvale, Calif.) plate reader.
FIGS. 14A-14BB are representative of the inhibition curves obtained by this method (results are shown for Ab1, Ab2, Ab3, Ab4, Ab5, Ab6, Ab7, Ab8, Ab9, Ab10, Ab11, Ab12, Ab13, Ab14, Ab15, Ab16, Ab17, Ab18, Ab19, Ab1.H, Ab10.H, Ab22, Ab23, Ab3.H, Ab4.H, Ab5.H, Ab9.H, and Ab12.H, respectively) wherein the PAC1-R expressing cells were PC-12 cells.

human PACAP27 [8] = biological target: T2, human PACAP27; test: cell-based or functional assay
human PACAP27 [9] = biological target: T2, human PACAP27; test: inhibition of 0.1 nM 125I-PACAP27 binding to human PAC1-R membranes
Protocol: To identify antibodies that block PACAP27 binding to PAC1-R, antibodies at an initial concentration of 30 nM were diluted in incubation buffer (50 mM Hepes pH 7.4, 1 mM CaCl₂, 5 mM MgCl₂, 0.2% BSA) and serial 1:3 dilutions were performed. Antibody dilutions (30 nM, 10 nM, 3 nM, 1 nM, 0.3 nM, 0.1 nM, 0.03 nM, 0.01 nM, 0.003 nM and 0.001 nM) were then mixed and pre-incubated at 25° C. for 30 minutes with 0.1 nM of ¹²⁵I-labelled PACAP27 in incubation buffer. The antibody: ¹²⁵I-labelled PACAP27 mixture was then added to 0.5 μg aliquots of cell membranes derived from Chem-1 cells expressing human recombinant PAC1-R long isoform in incubation buffer. The mixture was then incubated for 1 hour at 25° C. Following incubation, the samples were filtered and washed. Afterward, the filters were counted to quantitate ¹²⁵I-labelled PACAP27. As an experimental control, non-specific binding to the cell membranes was estimated using 0.1 μM of […] PACAP27.

Binder | Kd (human PACAP38 [1]) [pM] | koff (human PACAP38 [1]) [s⁻¹] | kon (human PACAP38 [1]) [M⁻¹ s⁻¹] | Kd (human PACAP27 [2]) [pM] | koff (human PACAP27 [2]) [s⁻¹] | kon (human PACAP27 [2]) [M⁻¹ s⁻¹] | Kd (human VIP) [µM] | koff (human VIP) [s⁻¹] | kon (human VIP) [M⁻¹ s⁻¹] | IC50, 0.1 nM PACAP38-induced PAC1-R mediated cAMP increase (human PACAP38 [3]) [µM] | IC50, 5 nM PACAP38-induced human VPAC1-R mediated cAMP increase (human PACAP38 [4]) [µM] | IC50, 1 nM PACAP38-induced human VPAC2-R mediated cAMP increase (human PACAP38 [5]) [µM] | EC50 (human PACAP38 [6]) [µM] | IC50 (human PACAP38 [7]) [µM] | IC50, 0.1 nM PACAP27-induced PAC1-R mediated cAMP increase (human PACAP27 [8]) [pM] | IC50 (human PACAP27 [9]) [µM]
B1 | 71 | 3.6e-05 | 510000 | 35000 | 0.031 | 890000 | 0.73 | 0.32 | 430000 | 0.000115 | 0.00267 | 0.00179 | 0.00056 | 0.0149 | – | –
B2 | ≤ 26 | ≤ 1e-05 | 380000 | 300 | 7.9e-05 | 260000 | 0.051 | 0.014 | 280000 | 0.000114 | 0.00128 | 0.000653 | – | 0.0681 | 86.3 | 0.00016
B3 | ≤ 21 | ≤ 1e-05 | 470000 | ≤ 13 | ≤ 1e-05 | 760000 | 4.8 | 0.18 | 38000 | 0.00026 | 0.00102 | 0.000983 | 0.00046 | 0.0563 | 57.7 | 0.0007
B4 | 61 | 6.1e-05 | 1e+06 | 120 | 7.7e-05 | 620000 | 1.5 | 0.14 | 93000 | 0.000278 | 0.00246 | 0.00265 | – | 0.0225 | 270 | –
B5 | ≤ 27 | ≤ 1e-05 | 370000 | – | 0.1 | – | 0.69 | 0.18 | 270000 | 0.000101 | 0.0013 | 0.000515 | 0.00057 | 0.0138 | – | –
B6 | 31 | 1.7e-05 | 550000 | 480 | 0.00013 | 270000 | 100000 | 0.1 | – | 0.000378 | 0.00277 | 0.00747 | – | 0.0349 | 217 | –
